Experimental data reported in patent US20240092916A1 (Astellas, published 2024).

How the values were obtained:
Experiment in all cases: ELISA, antigen immobilized at 1 µg/mL, detection with anti-human kappa-HRP
[1] = molecular target: T1, ActRIIA-His (LifeSpan Biosciences, LS-G39063) (Homo sapiens (Human), UniProt P27037 20-135)
T1 construct: Bought reagent
Method: (§1) The binding activities of the humanized 75E9STF8-1 obtained in Example 4 to ActRIIA, ActRIIB, and Fn14 were evaluated. ActRIIA-His (LifeSpan Biosciences, LS-G39063), ActRIIB-His (LifeSpan Biosciences, LS-G38834), and the human Fc fusion proteins including the extracellular domain of human Fn14 prepared in Example 3 were each diluted to 1 μg/mL with phosphate-buffered physiological saline (PBS), each added to a Maxisorp 384-well transparent plate (Nunc, 464718) at 15 μL/well, and incubated at 4° C. overnight for immobilization. On the next day, the solid phase liquid was removed and washing was performed with a 0.05% Tween-20-containing Tris-buffered physiological saline (TBS-T). Thereafter, PBS including 20% Blocking One (Nacalai tesque, Inc., 03953-95) was added thereto at 50 μL/well, and the mixture was left to stand at room temperature for 1 hour and then washed with TBS-T. Dilution series of humanized 75E9STF8-1 were prepared by dilution in 12 steps at a 4-fold common ratio from the maximum concentration of 30 μg/mL, and added at 20 μL/well. TBS-T including 5% Blocking One was used as a diluent. After incubation for 1 hour at room temperature, washing was performed with TBS-T. As a detection antibody, Goat Anti-Human Kappa, Mouse ads-HRP (SouthernBiotech, 2061-05) which had been 4,000-fold diluted with a diluent (TBS-T including 5% Blocking One) was added at 20 μL/well. After incubating at room temperature for 1.5 hours, the cells were washed with TBS-T, TMB+Substrate-Chromogen (DAKO, S159985) was added thereto, the mixture was left to stand, 1 M sulfuric acid was added thereto to stop the reaction, and the absorbance at 450 nm was measured with Infinite (registered trademark) 200 Pro (TECAN).

[2] = molecular target: T2, human Fc fusion protein including the extracellular domain of human Fn14 (human, UniProt Q9NP84 28-80)
T2 construct: extracellular domain; not shown: human Fc
T2 sequence (looked up): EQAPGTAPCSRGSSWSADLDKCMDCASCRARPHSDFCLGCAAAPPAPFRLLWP
Method: as §1

[3] = molecular target: T3, ActRIIB-His (LifeSpan Biosciences, LS-G38834) (Homo sapiens (Human), UniProt Q13705 19-137)
T3 construct: Bought reagent
T3 sequence: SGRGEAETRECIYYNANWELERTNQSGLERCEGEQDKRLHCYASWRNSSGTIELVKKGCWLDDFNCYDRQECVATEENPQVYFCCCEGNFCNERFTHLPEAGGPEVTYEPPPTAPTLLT
Method: as §1

T1 sequence (P27037 20-135 limits assumed, form in doubt, one chain of several): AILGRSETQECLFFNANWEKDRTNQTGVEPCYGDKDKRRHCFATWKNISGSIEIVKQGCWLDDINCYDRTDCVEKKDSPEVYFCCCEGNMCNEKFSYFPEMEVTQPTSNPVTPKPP

B1: humanized 75E9STF8-1 (bispecific antibody, human IgG1, kappa, L234A L235A)
heavy: EVQLVESGGGLVQPGGSLRLSCAASRSIFAYGTMAWYRQAPGKGRELVATISGGGTTSYSDSVKGRFTISRDNGKSTVYLQMNSLRAEDTAVYYCNKRSIGTNDFWGQGTLVTVSSGGGGSGGGGSGGGGSGGGGSGGGGSEVQLVESGGGLVQPGGSLRLSCAASGFTLTTNALIWGRQAPGAAPGKGPEWVAGIRADGRPYYGDSMKGRVTISRDIAKNTAYLQMNSLRPEDTAVYFCATRLDDSGTYDRGRGTTVTVSSGGGGSGGGGSEVQLVESGGGLVKPGGSLRLSCAASGITFSTYGMNWVRQAPGKGLEWVSSISSRSIHISYADSVKGRFTISRDNAKNSLYLQMSSLRADDTAVYYCARDRGAAAFDYWGRGTLVAVSSASTKGPSVFPLAPSSKSTSGGTAALGCLVKDYFPEPVTVSWNSGALTSGVHTFPAVLQSSGLYSLSSVVTVPSSSLGTQTYICNVNHKPSNTKVDKKVEPKSCDKTHTCPPCPAPEAAGGPSVFLFPPKPKDTLYITREPEVTCVVVDVSHEDPEVKFNWYVDGVEVHNAKTKPREEQYNSTYRVVSVLTVLHQDWLNGKEYKCKVSNKALPAPIEKTISKAKGQPREPQVYTLPPSRDELTKNQVSLTCLVKGFYPSDIAVEWESNGQPENNYKTTPPVLDSDGSFFLYSKLTVDKSRWQQGNVFSCSVMHEALHNHYTQKSLSLSPGK
light: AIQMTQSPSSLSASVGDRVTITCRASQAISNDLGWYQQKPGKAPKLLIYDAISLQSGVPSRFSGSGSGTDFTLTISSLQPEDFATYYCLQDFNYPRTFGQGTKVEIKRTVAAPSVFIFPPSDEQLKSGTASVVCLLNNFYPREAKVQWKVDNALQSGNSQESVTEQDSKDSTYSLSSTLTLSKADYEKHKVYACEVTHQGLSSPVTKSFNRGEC
notes: Expressed in CHO-K1SV cells
With B1 the EC50 [1] was 5.03 ng/mL, the EC50 [2] was 0.0233 µg/mL and the EC50 [3] was 9.24 ng/mL.
